Data taken from patent US20250152746A1, “BASE EDITING OF ANGPTL3 AND METHODS OF USING SAME FOR TREATMENT OF DISEASE” (Verve Therapeutics, Inc., priority 2020, published 2025).
In the oligonucleotide strings, read from the 5' end, every base follows the letter of its sugar. An asterisk marks phosphorothioate; unmarked linkages are phosphodiester. Other units and linkages are bracketed, terminal groups are in braces. A string of capitals states the bases alone. m = 2'-O-methyl; r = 2'-OH (RNA)

B1: GA195: PCSK9 gRNA; protospacer ACCACCGGGAAATCGAGGGC (SEQ ID NO: 189) (nucleic acid)
guide: ACCACCGGGAAAUCGAGGGCGUUUUAGAGCUAGAAAUAGCAAGUUAAAAUAAGGCUAGUCCGUUAUCAACUUGAAAAAGUGGCACCGAGUCGGUGCUUUU
modifications: sugars from the 5' end m3 r94 m3, linkages s3 o93 s3 (s phosphorothioate, o phosphodiester), T or U not given here
B2: GA199: PCSK9 gRNA; protospacer GAAGCGGGTCCCGTCCTCCT (SEQ ID NO: 193) (nucleic acid)
guide: GAAGCGGGUCCCGUCCUCCUGUUUUAGAGCUAGAAAUAGCAAGUUAAAAUAAGGCUAGUCCGUUAUCAACUUGAAAAAGUGGCACCGAGUCGGUGCUUUU
modifications: sugars from the 5' end m3 r94 m3, linkages s3 o93 s3 (s phosphorothioate, o phosphodiester), T or U not given here
B3: GA194: PCSK9 gRNA; protospacer GTCGACATGGGGCAACTTCA (SEQ ID NO: 188) (nucleic acid)
guide: GUCGACAUGGGGCAACUUCAGUUUUAGAGCUAGAAAUAGCAAGUUAAAAUAAGGCUAGUCCGUUAUCAACUUGAAAAAGUGGCACCGAGUCGGUGCUUUU
modifications: sugars from the 5' end m3 r94 m3, linkages s3 o93 s3 (s phosphorothioate, o phosphodiester), T or U not given here
B4: GA193: PCSK9 gRNA; protospacer GGGGCTGGTATTCATCCGCC (SEQ ID NO: 187) (nucleic acid)
guide: GGGGCUGGUAUUCAUCCGCCGUUUUAGAGCUAGAAAUAGCAAGUUAAAAUAAGGCUAGUCCGUUAUCAACUUGAAAAAGUGGCACCGAGUCGGUGCUUUU
modifications: sugars from the 5' end m3 r94 m3, linkages s3 o93 s3 (s phosphorothioate, o phosphodiester), T or U not given here
B5: GA201: PCSK9 gRNA; protospacer CAGCATACAGAGTGACCACC (SEQ ID NO: 195) (nucleic acid)
guide: CAGCAUACAGAGUGACCACCGUUUUAGAGCUAGAAAUAGCAAGUUAAAAUAAGGCUAGUCCGUUAUCAACUUGAAAAAGUGGCACCGAGUCGGUGCUUUU
modifications: sugars from the 5' end m3 r94 m3, linkages s3 o93 s3 (s phosphorothioate, o phosphodiester), T or U not given here
B6: GA197: PCSK9 gRNA; protospacer AGTGACCACCGGGAAATCGA (SEQ ID NO: 191) (nucleic acid)
guide: AGUGACCACCGGGAAAUCGAGUUUUAGAGCUAGAAAUAGCAAGUUAAAAUAAGGCUAGUCCGUUAUCAACUUGAAAAAGUGGCACCGAGUCGGUGCUUUU
modifications: sugars from the 5' end m3 r94 m3, linkages s3 o93 s3 (s phosphorothioate, o phosphodiester), T or U not given here
B7: GA192: PCSK9 gRNA; protospacer CCATGTCGACTACATCGAGG (SEQ ID NO: 186) (nucleic acid)
guide: mC*mC*mA*rUrGrUrCrGrArCrUrArCrArUrCrGrArGrGrGrUrUrUrUrArGrArGrCrUrArGrArArArUrArGrCrArArGrUrUrArArArArUrArArGrGrCrUrArGrUrCrCrGrUrUrArUrCrArArCrUrUrGrArArArArArGrUrGrGrCrArCrCrGrArGrUrCrGrGrUrGrCrU*mU*mU*mU
B8: GA200: PCSK9 gRNA; protospacer CTAGGAGATACACCTCCACC (SEQ ID NO: 194) (nucleic acid)
guide: CUAGGAGAUACACCUCCACCGUUUUAGAGCUAGAAAUAGCAAGUUAAAAUAAGGCUAGUCCGUUAUCAACUUGAAAAAGUGGCACCGAGUCGGUGCUUUU
modifications: sugars from the 5' end m3 r94 m3, linkages s3 o93 s3 (s phosphorothioate, o phosphodiester), T or U not given here
B9: GA157: PCSK9 gRNA; protospacer GCCGTCCTCCTCGGAACGCA (SEQ ID NO: 151) (nucleic acid)
guide: mG*mC*mC*rGrUrCrCrUrCrCrUrCrGrGrArArCrGrCrArGrUrUrUrUrArGrArGrCrUrArGrArArArUrArGrCrArArGrUrUrArArArArUrArArGrGrCrUrArGrUrCrCrGrUrUrArUrCrArArCrUrUrGrArArArArArGrUrGrGrCrArCrCrGrArGrUrCrGrGrUrGrCrU*mU*mU*mU
B10: GA196: PCSK9 gRNA; protospacer GAGTGACCACCGGGAAATCG (SEQ ID NO: 190) (nucleic acid)
guide: GAGUGACCACCGGGAAAUCGGUUUUAGAGCUAGAAAUAGCAAGUUAAAAUAAGGCUAGUCCGUUAUCAACUUGAAAAAGUGGCACCGAGUCGGUGCUUUU
modifications: sugars from the 5' end m3 r94 m3, linkages s3 o93 s3 (s phosphorothioate, o phosphodiester), T or U not given here
B11: GA198: PCSK9 gRNA; protospacer CCACCGGGAAATCGAGGGCA (SEQ ID NO: 192) (nucleic acid)
guide: CCACCGGGAAAUCGAGGGCAGUUUUAGAGCUAGAAAUAGCAAGUUAAAAUAAGGCUAGUCCGUUAUCAACUUGAAAAAGUGGCACCGAGUCGGUGCUUUU
modifications: sugars from the 5' end m3 r94 m3, linkages s3 o93 s3 (s phosphorothioate, o phosphodiester), T or U not given here

What follows are molecules tested on PCSK9 gene (assay: PCSK9 gRNA/SpCas9 editing in primary human hepatocytes (Tables 2, 4)). Conditions: 100 ng/RNA/mL; SpCas9 mRNA MS002 1:1 by weight.
Type: cell-based
Experimental: In set of experiments, PCSK9 gRNAs were co-transfected with an equivalent amount (1:1 ratio by weight) of in vitro transcribed commercially available SpCas9 mRNA MS002 purchased from TriLink Biotechnologies into primary human hepatocytes at 2500, 500, or 100 ng/RNA/mL and processed as described in detailed methods. Extracted genomic DNA was analyzed for gene editing at the target site with next-generation sequencing of PCR amplicons generated around the target sites. Samples were prepared using the Nextera XT DNA library preparation kit (Illumina) according to the manufacturer's protocol. Briefly, two rounds of PCR were performed first to amplify the region of interest and second to add DNA sequences required for next generation sequencing and sample identification to the initial product. The final amplicon was sequenced on the Illumina MiSeq instrument according to the manufacturer's protocol. A wide range of editing activities (Table 2) were observed. In a second set of experiments, ANGPTL3 gRNAs were co-transfected with an equivalent amount of in vitro transcribed SpCas9 mRNA (1:1 ratio by weight) into primary human hepatocytes and processed and analyzed similarly (Table 3).
PCSK9 gRNAs were co-transfected with an equivalent amount of in vitro transcribed SpCas9 mRNA MS002 (1:1 ratio by weight) into primary human hepatocytes and processed as described in detailed methods. A wide range of editing activities were observed (Table 4; ND=Not determined). The guides with the highest editing activity at five days post transfection were GA001, GA002, GA007, and GA008.
Human primary hepatocytes were transfected at 2500, 1250, 500, and 250 ng/test article/mL with SpCas9 mRNA MS002 and a gRNA targeting PCSK9 with modifications to the tracr. Genomic DNA was processed, sequenced, and analyzed as described in the detailed methods section. GA156 was transfected to serve as a positive control.
Plating, culturing, and transfection of primary hepatocytes. Primary human liver hepatocytes (PHH) and primary cynomolgus liver hepatocytes (PCH) from BioIVT were cultured per the manufacturer's protocol. Briefly, primary human hepatocytes and primary cyno hepatocytes were obtained as frozen aliquots from BioIVT. Four lots of primary human hepatocytes, each derived from a de-identified individual donor, were used for the experiments: STL (main donor) was used for all experiments, including screening experiments and off-target experiments; HLY, JLP, and TLY were used for off-target experiments. The HFG lot of primary cyno hepatocytes were used for experiments. Following the manufacturer's instructions, cells were thawed and rinsed prior to plating in 24-well plates that had been coated with bovine collagen overnight, with a density of approximate 350,000 cells/well in INVITROGRO hepatocyte medium supplemented with TORPEDO antibiotic mix (BioIVT). The cells were thawed and resuspended in hepatocyte thawing medium followed by centrifugation at 100 g for 10 min at 4° C. The supernatant was discarded, and the pelleted cells resuspended in hepatocyte plating medium. Each vial contains approximately 5 million cells that were used for plating one 24-well plate. Plated cells were allowed to settle and adhere for 4-6 h in a tissue culture incubator at 37° C. under 5% CO2 atmosphere. After incubation, cells were checked for monolayer formation. The incubating media were then replaced with fresh hepatocyte maintenance media (complete INVITROGRO medium obtained from BioIVT, the cell line provider). The cells thus became ready for transfection. Each of the gRNAs were co-transfected with an equivalent amount of in vitro transcribed ABE8.8 mRNA (1:1 ratio by molecular weight) into primary human hepatocytes via MessengerMax reagent (Lipofectamine), using various dilutions to assess for editing activity at different concentrations of test article. MessengerMAX from Thermo Fisher is used for transfection. […]

Molecule | Human Primary Hepatocyte Editing % 100
B1 | 3.58%
B2 | 1.17%
B3 | 2.32%
B4 | 3.92%
B5 | 3.29%
B6 | 1.22%
B7 | 1.14%
B8 | 3.8%
B9 | 0.62%
B10 | 0.75%
B11 | 0.04%

Same assay, conditions: 500 ng/RNA/mL; SpCas9 mRNA MS002 1:1 by weight

Molecule | Human Primary Hepatocyte Editing % 500
B1 | 13.3%
B2 | 6.89%
B3 | 12.39%
B4 | 15.68%
B5 | 12.92%
B6 | 3.29%
B7 | 6.02%
B8 | 8.68%
B9 | 2.82%
B10 | 2.9%
B11 | 10.58%

Same assay, conditions: 2500 ng/RNA/mL; SpCas9 mRNA MS002 1:1 by weight

Molecule | Human Primary Hepatocyte Editing % 2500
B1 | 12.57%
B2 | 29.95%
B3 | 32.97%
B4 | 35.77%
B5 | 31.51%
B6 | 15.03%
B7 | 16.7%
B8 | 5.31%
B9 | 10.03%
B10 | 17.19%
B11 | 30.93%

Each molecule was assayed on PCSK9 gene (assay: PCSK9 gRNA/SpCas9 editing in primary cynomolgus hepatocytes (Tables 2, 22)). Conditions: 100 ng/RNA/mL; SpCas9 mRNA MS002 1:1 by weight.
Type: cell-based, cynomolgus monkey

Molecule | Cyno Primary Hepatocyte Editing % 100
B1 | 0.69%
B2 | 3.07%
B3 | 2.38%
B4 | 8.70%
B5 | 4.33%
B6 | 0.9%
B7 | 0.60%
B8 | 5.15%
B9 | 0.78%
B10 | 1.09%
B11 | 3.53%

Same assay, conditions: 500 ng/RNA/mL; SpCas9 mRNA MS002 1:1 by weight

Molecule | Cyno Primary Hepatocyte Editing % 500
B1 | 4.77%
B2 | 15.11%
B3 | 9.49%
B4 | 32.02%
B5 | 14.37%
B6 | 3.89%
B7 | 1.50%
B8 | 20.51%
B9 | 2.93%
B10 | 3.4%
B11 | 16.15%

Same assay, conditions: 2500 ng/RNA/mL; SpCas9 mRNA MS002 1:1 by weight

Molecule | Cyno Primary Hepatocyte Editing % 2500
B1 | 18.78%
B2 | 45.32%
B3 | 30.91%
B4 | 52.89%
B5 | 44.01%
B6 | 18.21%
B7 | 10.26%
B8 | 54.36%
B9 | 13.78%
B10 | 27.79%
B11 | 49%
